Results taken from the supplement of paper PMC7877785.
± gives the uncertainty stated by the source.

Assay: self-splicing fitness, log relative to wild type (ln ratio); higher = more splicing; Tetrahymena group I intron in knt gene, E. coli kanamycin selection, DiMSum; sequences stand for … in CUCUCU…GGAGGGAAAAGUUAUCAGGCAUGCACCUGGUAGCUAGUCUUUAAACCAAUAGAUUGCAUCGGUUUAAAAGGCAAGACCGUCAAAUUGCGGGAAAGGGGUCAACAGCCGUUCAGUACCAAGUCUCAGGGGAAACUUUGAGAUGGCCUUGCAAAGGGUAUGGUAAUAAGCUGACGGACAUGGUCCUAACCACGCAGCCAAGUCCUAAGUCAACAGAUCUUCUGUUGAUAUGGAUGCAGUUCACAGACUAAAUGUCGGUCGGGGAAGAUGUAUUCUUCUCAUAAGAUAUAGUCGGACCUCUCCUUAAUGGGAGCUAGCGGAUGAAGUGAUGCAACACUGGAGCCGCUGGGAACUAAUUUGUAUGCGAAAGUAUAUUGAUUAGUUUUGGAGUACUCGUGGUCG
Procedure, shortened: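 DiMSum derived fitness as the error-weighted combination of fold changes across replicates, kanamycin versus no kanamycin, normalised to wild type. E. coli BL21(DE3) held the library, which randomised all eight P1ex-region intron nucleotides within the knt kanamycin-resistance gene on pET-22b(+). Six replicate transformations grew overnight at 37°C or 30°C on LB agar with or without 25 μg/mL kanamycin, also containing 100 μg/mL carbenicillin, 50 μM IPTG and 0.2% rhamnose, and pooled colonies were amplicon-sequenced on an Illumina HiSeq 2500.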

Sequence	self-splicing fitness (ln) (30 °C)	self-splicing fitness (ln) (37 °C)
AUACAGCAAUAUUACGCCGU	-1.34 ± 0.099	-0.0561 ± 0.1
CGAGAGCAAUAUUACGAUGU	-3.97 ± 0.25	-1.83 ± 0.19
GUUUAGCAAUAUUACGUCGG	-2.06 ± 0.18	-2.12 ± 0.21
GGUUAGCAAUAUUACGACUC	-1.58 ± 0.17	-0.677 ± 0.21
GCCCAGCAAUAUUACGGCCG	-1.11 ± 0.28	–
UGCCAGCAAUAUUACGGAUU	-1.67 ± 0.068	-0.242 ± 0.074
CUUGAGCAAUAUUACGUCGU	-3.97 ± 0.18	-2.75 ± 0.2
ACCAAGCAAUAUUACGGGCA	-0.376 ± 0.06	-0.0824 ± 0.072
CUCUAGCAAUAUUACGGGUC	-5.03 ± 0.34	-2.21 ± 0.18
UGCGAGCAAUAUUACGGGCG	-1.59 ± 0.061	-0.628 ± 0.086
CCGCAGCAAUAUUACGGAUC	–	-2.39 ± 0.41
GUAUAGCAAUAUUACGAUGG	-3.43 ± 0.35	-0.958 ± 0.24
AGGCAGCAAUAUUACGAAGA	-1.96 ± 0.29	-1.12 ± 0.18
CGGUAGCAAUAUUACGCGUC	–	-1.81 ± 0.39
AUCCAGCAAUAUUACGGCCU	-0.115 ± 0.065	0.0854 ± 0.081
CGUAAGCAAUAUUACGAGAU	-4.04 ± 0.47	-2.55 ± 0.41
GACGAGCAAUAUUACGAGGA	-2.28 ± 0.28	-2.66 ± 0.36
CAAUAGCAAUAUUACGAGUU	-3.64 ± 0.2	-2.19 ± 0.2
UCCUAGCAAUAUUACGACUG	-3.17 ± 0.27	-3.52 ± 0.42

Sequence	self-splicing fitness (ln) (30 °C)	self-splicing fitness (ln) (37 °C)
GGUCAGCAAUAUUACGGUCG	-0.085 ± 0.066	0.661 ± 0.09
UGCAAGCAAUAUUACGCGUC	-1.63 ± 0.18	-2.93 ± 0.26
UAGUAGCAAUAUUACGGCCA	-1.22 ± 0.26	0.0405 ± 0.27
UUGGAGCAAUAUUACGGCCA	-2.23 ± 0.19	-0.299 ± 0.15
AAGUAGCAAUAUUACGUACU	-0.863 ± 0.19	-0.429 ± 0.19
CCUGAGCAAUAUUACGCAAG	-3.97 ± 0.24	-2.49 ± 0.19
AGGCAGCAAUAUUACGGUAC	-3.68 ± 0.21	-2.65 ± 0.2
AUACAGCAAUAUUACGUGCG	-0.886 ± 0.081	-0.3 ± 0.091
UGCGAGCAAUAUUACGAAGU	-3.37 ± 0.3	-0.334 ± 0.29
GCCUAGCAAUAUUACGAGAG	-3.76 ± 0.32	-1.44 ± 0.12
UCACAGCAAUAUUACGUCGG	-1.43 ± 0.077	-0.796 ± 0.083
UCGAAGCAAUAUUACGUAGG	-1.42 ± 0.08	-1.61 ± 0.1
GCAAAGCAAUAUUACGAGAA	-3 ± 0.2	-1.66 ± 0.18
AUCGAGCAAUAUUACGGCUU	-3.88 ± 0.3	-2.58 ± 0.29
CGACAGCAAUAUUACGCUUU	-5.56 ± 0.41	-2.05 ± 0.15
UUGUAGCAAUAUUACGUCGG	-1.21 ± 0.094	-0.478 ± 0.093
CGCAAGCAAUAUUACGGUCU	-0.969 ± 0.066	-0.898 ± 0.081
AUAUAGCAAUAUUACGUCAU	-2.43 ± 0.14	-1.15 ± 0.14
UAUGAGCAAUAUUACGGUAC	-4.01 ± 0.43	-2.66 ± 0.48
